Data as given in the nanobody polyreactivity screen of Harvey et al. (2022).

Assay: yeast display, Sf9 membrane polyspecificity reagent, FACS + sequencing; frameworks hold sequencing errors
In short: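 A synthetic nanobody library was expressed on Saccharomyces cerevisiae BJ5465 by galactose induction for 36–48 hours. The library was stained for 1 hour at 4 °C with 10% biotinylated, detergent-solubilized Sf9 membrane reagent and enriched with streptavidin microbeads before FACS. Low and high (top ~1%) gates were set on anti-HA fluorescence for expression and streptavidin fluorescence for reagent binding, and each polyreactivity label reflects the gate of origin.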

Q: With “QVQLVESGGGLVQAGGSLRLSCAASGFTFRGYAMGWYRQAPGKERELVAAISKRGGSTYYADSVKGRFTISRDNAKNTVYLQMNSLKPEDTAVYYCNADYYIVGPPYAPTREDYWGQGTQVTVSS” as the sequence, how does the “polyreactivity (PSR sort gate)” value read?
A: high polyreactivity

Q: For “QVQLVESGGGLVQAGGSLRLSCAASGFTFRGYAMGWYRQAPGKERELVAAISWRGGSTYYADSVKGRFTISRDNAKNTVYLQMNSLKPEDTAVYYCAARYGRSYFGYYYWGQGTQVTVSS”, which “polyreactivity (PSR sort gate)” value is on record?
A: high polyreactivity

Q: For “QVQLVESGGGLVQAGGSLRLSCAASGFTFRGYAMGWYRQAPGKERELVAVINTDGSTNYADSVKGRFTISRDNAKNTVYLQMNSLKPEDTAVYYCNAVRSSIGSDNDYWGQGTQVTVSS”, which “polyreactivity (PSR sort gate)” value is on record?
A: low polyreactivity

Q: For “QVQLVESGGGLVQAGGSLRLSCAASGFTFRIYAMGWYRQAPGKERELVAAISWAGGSTFYADSVKGRFTISRDNAKNTVYLQMNSLKPEDTAVYYCAADYGYFEYDYWGQGTQVTVSS”, which “polyreactivity (PSR sort gate)” value is on record?
A: low polyreactivity

Q: Which “polyreactivity (PSR sort gate)” value does the source give for “QVQLVESGGGLVQAGGSLRLSCAASGFTFRKNAMGWYRQAPGKERELVAAISSGTSTYYADSVKGRFTISRDNAKNTVYLQMNSLKPEDTAVYYCAAARYRTDDYWGLGTQVTVSS” here?
A: high polyreactivity

Q: Which “polyreactivity (PSR sort gate)” value does the source give for “QVQLVESGGGLVQAGGSLRLSCAASGFTFRKYAMGWYRQAPGKERELVAAISSSGTSTYYADSVKGRFTISRDNAKNTVYLQMNSLKPEDTAVYYCAADRYYWGRYTLNYWGQGTQVTVSS” here?
A: low polyreactivity

Q: For “QVQLVESGGGLVQAGGSLRLSCAASGFTFRNYAMGWYRQAPGKERELVAAISKRGGNTYYADSVKGRFTISRDNAKNTVYLQLYSLKREDTAVYYCAADYQFSQDVWHFGYWGLGTQVTVSS”, which “polyreactivity (PSR sort gate)” value is on record?
A: high polyreactivity

Q: Which “polyreactivity (PSR sort gate)” value does the source give for “QVQLVESGGGLVQAGGSLRLSCAASGFTFRNYAMGWYRQAPGKERELVAAISKRGGNTYYADSVKGRFTISRDNAKNTVYLQMNSLKPEDTAVYYCAAQRYTGQGSGYGYWGQGTQVTVSS” here?
A: high polyreactivity

Q: For “QVQLVESGGGLVQAGGSLRLSCAASGFTFRNYAMGWYRQAPGKERELVAAISKRGGNTYYADSVKGRFTISRDNAKNTVYLQMNSLKPEDTAVYYCARKYFRTSNLYGYWGQGTQVTVSS”, which “polyreactivity (PSR sort gate)” value is on record?
A: high polyreactivity

Q: For “QVQLVESGGGLVQAGGSLRLSCAASGFTFRNYAMGWYRQAPGKERELVAAISKSGGSTYYADSVKGRFTISRDNAKNTVYFQMNSLKPEDSAVYYCATVYLYVYGFEYYYWGQGTQVTLSS”, which “polyreactivity (PSR sort gate)” value is on record?
A: high polyreactivity

Q: For “QVQLVESGGGLVQAGGSLRLSCAASGFTFRRNAMGWYLQAPGKERELVARISSGGSTNYADSVKGRFTISRDNAKNTVYLQMNSLKPEDSAVYYCATGKGPYPYRQRYGYWGQGTKVTVSS”, which “polyreactivity (PSR sort gate)” value is on record?
A: high polyreactivity

Q: With “QVQLVESGGGLVQAGGSLRLSCAASGFTFRRNAMGWYRQAPGKERELVAAISSGGGTYYADSVKGRFTISRDNAKNTLYLQMNSLKPEETAVYYCNAAGQVRKYGYWGQGTEVTVSS” as the sequence, how does the “polyreactivity (PSR sort gate)” value read?
A: high polyreactivity

Q: For “QVQLVESGGGLVQAGGSLRLSCAASGFTFRRNAMRWYRQAPGKEWELVAAINFRDGSTYYADSLKGRFTISRDNAMIHVYLQMHSLKPEDSAVYYRAAVYYVRDRYDYWGQGTQETVSS”, which “polyreactivity (PSR sort gate)” value is on record?
A: high polyreactivity

Q: With “QVQLVESGGGLVQAGGSLRLSCAASGFTFRRYAMGWYRQAPGKERELVAAISYGGGRTYYAESVKGRFTISRDNAKNTVYLQMNSLKPEDTAVYYCAADVLSRYVGEADYWGQGTQVTVSS” as the sequence, how does the “polyreactivity (PSR sort gate)” value read?
A: high polyreactivity

Q: Which “polyreactivity (PSR sort gate)” value does the source give for “QVQLVESGGGLVQAGGSLRLSCAASGFTFRRYAMGWYRQAPGKERELVAAITRTGAGTYYADSVKGRFTISRDNAKNTVYLQMNSLKPEDTAVYYCAAAFYYASAMDYWGQGTQVTVSS” here?
A: high polyreactivity

Q: With “QVQLVESGGGLVQAGGSLRLSCAASGFTFRRYAMGWYRQAPGKERELVARISFNGGSTFYADSVKGRFTISRDNAKNTVYLQMNSLKPEDTAVYYCAAVFGGRSLSRTYGYDYWGQGTQVTVSS” as the sequence, how does the “polyreactivity (PSR sort gate)” value read?
A: high polyreactivity

Q: With “QVQLVESGGGLVQAGGSLRLSCAASGFTFRRYAMGWYRQAPWKESELVAAITRDGITNYAASVKGRFTLSRDNAKNTVYFQMNILKPEDTAVYYCARRTGRARLDYWGQGTQVSVSS” as the sequence, how does the “polyreactivity (PSR sort gate)” value read?
A: high polyreactivity

Q: Which “polyreactivity (PSR sort gate)” value does the source give for “QVQLVESGGGLVQAGGSLRLSCAASGFTFRRYDMGWYRQAPGKERELVATLNRGGSTDYADSVKGRFTISRDNAKNTVYFQLNSLKPEETAVYYCATRYYSSRNWSEYYYWGQGTQVTVSS” here?
A: high polyreactivity

Q: With “QVQLVESGGGLVQAGGSLRLSCAASGFTFRSYAMGWYRQAPGKERELVAAISSGGSTYYADSVKGRFTISRDNAKNTVYLQMNSLKPEDTAVYYCAARRYYGYGHWGQGTQVNVSS” as the sequence, how does the “polyreactivity (PSR sort gate)” value read?
A: high polyreactivity

Q: Which “polyreactivity (PSR sort gate)” value does the source give for “QVQLVESGGGLVQAGGSLRLSCAASGFTFRSYAMGWYRQAPGKERELVADISIRGGGTYYADTVKGRFTISRDNAKNTVYLQMNSLKPEDTAVYYCAAERYKPFLWPRYDYWGQGTQVTVSS” here?
A: low polyreactivity

Q: Which “polyreactivity (PSR sort gate)” value does the source give for “QVQLVESGGGLVQAGGSLRLSCAASGFTFRSYAMGWYRQAPGKERELVASISPGATTKYADSVKGRFTISRDNAKNTVYLQMNSLKPEDTAVYYYEVYQILVRRLSYWGQGTQVTVSC” here?
A: high polyreactivity

Q: For “QVQLVESGGGLVQAGGSLRLSCAASGFTFRTYAMGWYRQAPGKERELVAAINTGGGTNYADSVKGRFTISRDNAKNTVYLQMNSLKPEDTAVYFCNAVHYYYYYWYSLYDSWGKGTQVTVSS”, which “polyreactivity (PSR sort gate)” value is on record?
A: high polyreactivity

Q: For “QVQLVESGGGLVQAGGSLRLSCAASGFTFRTYAMGWYRQAPGKERELVADISGSGGSTYYADSVKGRFTISRDNAKNTVYLQMISLKPEDTAVYYCAATIYNWGYEREYWGQGTQVTVSS”, which “polyreactivity (PSR sort gate)” value is on record?
A: high polyreactivity

Q: For “QVQLVESGGGLVQAGGSLRLSCAASGFTFRWYAMGWYRQAPGKERELVAAISTTGGSTYYADSVKGRFTISRDNAKNTVYFQLNSLKPEDTAVYYCNVYSGRYWESHKFDSWGQGTQVTVSS”, which “polyreactivity (PSR sort gate)” value is on record?
A: high polyreactivity

Q: Which “polyreactivity (PSR sort gate)” value does the source give for “QVQLVESGGGLVQAGGSLRLSCAASGFTFRWYAMGWYRQAPGKERELVAAITHSGGSTYYADSVKGRFTISRDNAKNTVYLQMNSLKPEDTAVYYCAAGYIRKYSAFRYNYWGQGTQVTVSS” here?
A: high polyreactivity

Q: With “QVQLVESGGGLVQAGGSLRLSCAASGFTFRWYAMGWYRQAPGKERELVADITRHGGSTYYADSVKGRFTISRDNAKNTVYLQMNSLKPEDTAVYYCAKQNETPWQAYYFDWPEFDYWGQGTQVTVSS” as the sequence, how does the “polyreactivity (PSR sort gate)” value read?
A: low polyreactivity

Q: With “QVQLVESGGGLVQAGGSLRLSCAASGFTFRWYAMGWYRQAPGKETELVAAISRDGSTNYADSVKGRFTISRDNAKNTVYLQMNSLKPEDTAFYYCATDSYPWGRSTGWRKQKGYYWGQGTKVTVSS” as the sequence, how does the “polyreactivity (PSR sort gate)” value read?
A: high polyreactivity

Q: Which “polyreactivity (PSR sort gate)” value does the source give for “QVQLVESGGGLVQAGGSLRLSCAASGFTFRWYDMGWYRQAPGKERELVAVISRSGGRTYYADSVKGRFTISRDNAKNTVYLQMNSLKPEDTAVYYCAADWWGYDGRYDYWGQGTQVTVSS” here?
A: high polyreactivity

Q: For “QVQLVESGGGLVQAGGSLRLSCAASGFTFRWYTMGWYRQAPGKERELVAAISWSGTSTYYADSVKGRFTISRDNAKNTVYLQMNSLKPEDTAVYYCAAADFYYTGADDYWGQGTQVTVSS”, which “polyreactivity (PSR sort gate)” value is on record?
A: high polyreactivity

Q: Which “polyreactivity (PSR sort gate)” value does the source give for “QVQLVESGGGLVQAGGSLRLSCAASGFTFRWYTMGWYRQAPGKERELVASINWSTGSTYYADSVKGRFTISRDNAKNTVYLQMNSLKPEDTAVYYCAATAWYNSYFGLDYWGQGTQVTVSS” here?
A: high polyreactivity

Q: Which “polyreactivity (PSR sort gate)” value does the source give for “QVQLVESGGGLVQAGGSLRLSCAASGFTFRYNAMGWYRQAPGKERELVAAITNSGGGTYYADSVKGRFTISRDNAKNTVYLQMNSLKPEDTAVYYCNAKRTNRYVWGKYDYWGQGTQVTVSS” here?
A: high polyreactivity

Q: For “QVQLVESGGGLVQAGGSLRLSCAASGFTFRYNAMGWYRQAPGKERELVASITYSGGTTTYADSVKGRFTISRDNAKNTVYLQMNSLKPEDTAVYYCAARGYFSGYRVYYWGQGTQVTVSS”, which “polyreactivity (PSR sort gate)” value is on record?
A: high polyreactivity

Q: For “QVQLVESGGGLVQAGGSLRLSCAASGFTFRYYAMGWDRQAPGKERDWVAAITRRGGSTYYSDSVKGRFTISRDNAKNTVYLLMNSLKPEDTAVYYCAASLWTTSADYDYWGQGTQVTVSS”, which “polyreactivity (PSR sort gate)” value is on record?
A: high polyreactivity

Q: With “QVQLVESGGGLVQAGGSLRLSCAASGFTFRYYAMGWYRQAAGKDRELVAAISSGGRTYYADSVKGRFKISRDNAKNTVYLQMNSLKPADTAVYYCNASRHFRRVEYDYWGQGTQVTVSS” as the sequence, how does the “polyreactivity (PSR sort gate)” value read?
A: high polyreactivity

Q: Which “polyreactivity (PSR sort gate)” value does the source give for “QVQLVESGGGLVQAGGSLRLSCAASGFTFRYYAMGWYRQAPGKERELVAAIDWSGGSTYYADSVKGRFTISRDNAKNTVYLQMNSLKPEDTAVYYCNAVLVPREYYSWGQGTQVTVSS” here?
A: low polyreactivity

Q: Which “polyreactivity (PSR sort gate)” value does the source give for “QVQLVESGGGLVQAGGSLRLSCAASGFTFRYYAMGWYRQAPGKERELVAAISKSGGSTYYADSVKGRFTISRDNAKNTVYLQMNSLKPEDTAVYYCAARNWFSYYQIMDYWGQGTQVTVSS” here?
A: high polyreactivity

Q: For “QVQLVESGGGLVQAGGSLRLSCAASGFTFRYYAMGWYRQAPGKERELVAAISKSGGSTYYADSVKGRFTISRDNAKNTVYLQMNSLKPEDTGVFYCAADYAHIGYDYDYWGQGTQVTVSS”, which “polyreactivity (PSR sort gate)” value is on record?
A: high polyreactivity

Q: For “QVQLVESGGGLVQAGGSLRLSCAASGFTFRYYAMGWYRQAPGKERELVAAISRSDSRTYADSVKGRFTISRDNAKNTVYLQMTSLNPEDTAVYYCAARIRPLYANVRYGYWGQGTQVTVSS”, which “polyreactivity (PSR sort gate)” value is on record?
A: high polyreactivity

Q: With “QVQLVESGGGLVQAGGSLRLSCAASGFTFRYYAMGWYRQAPGKERELVAAISSRGGTTYYADSVKGRFTISRDNAKNTVYLQMNSLKPEDTAVYYCAAVRPPSYYYWGQGTQVTVSS” as the sequence, how does the “polyreactivity (PSR sort gate)” value read?
A: high polyreactivity

Q: Which “polyreactivity (PSR sort gate)” value does the source give for “QVQLVESGGGLVQAGGSLRLSCAASGFTFRYYTMGWYRQAPGKEREFVAAIRGGGSSTYYADSVKGRFTISRDNAKNTVYLQMTSLKPEDTAVYSCAAVTSQLYGYRYYYGGQGTQVTVSS” here?
A: high polyreactivity

Q: Which “polyreactivity (PSR sort gate)” value does the source give for “QVQLVESGGGLVQAGGSLRLSCAASGFTFRYYTMGWYRQAPGKERELVASISRRGGSTYYADSVKGRFTISRDNAKNTVYLQMNSLKPEDTAVYYCNTLSQVFASRAPKFDYWGHGTQVTVSS” here?
A: high polyreactivity
